Measured values taken from patent publication EP2848696A1, “Caspase-1 imaging probes” (Sanofi-Aventis Deutschland GmbH, priority 2013, dated 2015).

Tests used:
Assay in all cases: Kinetic characterization (Km and kcat/Km of probe hydrolysis)
Format in all cases: biochemical
Details in all cases: other: caspase-1 added to increasing probe concentrations; initial velocities; nonlinear regression
[1] = substrate: CCN(CC)c1ccc2cc(C(=O)NNC(=O)[C@H](CC(=O)O)NC(=O)[C@@H]3CCCN4C(=O)CC[C@H](NC(=O)c5cc6ccc(OC)cc6oc5=O)C(=O)N34)c(=O)oc2c1
Description: (§1) Km and kcat/Km values were determined using standard methods (Kindermann et al., 2010; Rozman Pungercar et al., 2003). Caspase-1 was added to increasing concentrations of the probe and initial velocities of probe hydrolysis were calculated from the slopes of the lines of the fluorescence increase. Km and kcat (Vmax) values were then determined by nonlinear regression analysis using the Prism program.

[2] = substrate: CCN(CC)c1ccc2cc(C(=O)NNC(=O)[C@H](CC(=O)O)NC(=O)[C@@H]3CCCN4C(=O)CC[C@H](NC(=O)c5cc6ccc(O)cc6oc5=O)C(=O)N34)c(=O)oc2c1
Description: as §1

[3] = substrate: CCN(CC)c1ccc2cc(C(=O)NNC(=O)[C@H](CC(=O)O)NC(=O)[C@@H]3CCCN4C(=O)CC[C@H](NC(=O)c5cc6cc(Br)c(O)cc6oc5=O)C(=O)N34)c(=O)oc2c1
Description: as §1

B1: Caspase-1 (Homo sapiens) (protein)
chain 1: NPAMPTSSGSEGNVKLCSLEEAQRIWKQKSAEIYPIMDKSSRTRLALIICNEEFDSIPRRTGAEVDITGMTMLLQNLGYSVDVKKNLTASDMTTELEAFAHRPEHKTSDSTFLVFMSHGIREGICGKKHSEQVPDILQLNAIFNMLNTKNCPSLKDKPKVIIIQACRGDSPGVVWFKD
chain 2: AIKKAHIEKDFIAFCSSTPDNVSWRHPTMGSVFIGRLIEHMQEYACSCDVEEIFRKVRFSFEQPDGRAQMPTTERVTLTRCFYLFPGH
B1 gave a Km [1] of 4.2 µM µM, a Km [2] of 6.5 µM µM and a Km [3] of 5.9 µM µM.
